B1: TCN-528 (5087_P17) (antibody, V domains shown)
VH: QVQLVQSGSEVKKPGASVKVSCKASGYTFTNYDINWIRQAPGQGLEWMGWINPNSGTTGSAQRFQGRVTITVDTSITTVYMELSSLRSDDTAIYYCARGRELLRLQHFLTDSQSERRDCFDPWGQGTLVTVSS
VL: DIQMTQSPSSLSASVGDRVTITCRANQDIGIYLNWYQQNPGKVPKLLLHGASSLQGGVPSRFSASGSGTDFTLTIHSLQPEDLATYYCQQSRRLPYTFGQGTRVELK
B2: TCN-530 (5248_H10a) (antibody, V domains shown)
VH: QVQLVQSGAEVRKPGSSVKVSCKASGGPFMSYAIGWVRQAPGQGLEWMGGINPVFGRPHYAQKFQGRVTIATDDSTKTSYMELSSLTSEDTGMYYCASRYSRSSPGTFESWGQGTLVTVSS
VL: EIVMTQFPATLSVSPGERVTLSCRASQSVSNNLAWYQQKPGQPPRLLIYDASTRATGVPAKFSGTGSGTEFTLSISSLQSEDFAVYYCQQYHNWPPSYSFGLGTKLEIK
B3: TCN-521 (3280_D18) (antibody, V domains shown)
VH: EVQLVQSGGGLVQPGGSLRLACVVSGFTVTSNYITWVRQAPGKGLEWVSVIYSHGRAYYSASVNGRFTISRHTSKNTVYLEMNSLRPEDTAVYYCAGGGLVGGYDEYFFDYWGQGTLATVSS
VL: ETVLTQSPGTLSLTPGERATLSCRVGQSVSGSHLAWYQQKPGQAPRLLIYGASSRATGIPDRFGGSVSGTDFTLTISRLEPEDSAVYYCQQYGDSRYTFGQGTKLEIK
B4: TCN-531 (5091_H13) (antibody, V domains shown)
VH: EVQLVESGGDLVQPGRSLKLSCTGSGFTFGDYGVTWVRQAPGKGLEWVGFIRTRPWGGTADTAASVKGRFTISRDDSKSLAYLQMNSLKTEDTAVYYCCRDAPPNVEVASMTNWYFDLWGRGTLVTVSS
VL: DIQLTQSPSSLSASVGDRVTITCRASQGILNCLAWYQQKPGKVPNLLMYAASTLQSGVPSRFSGSGFGTDFTLTISSLQPEDVATYYCQTYGGVSTFGGGTKVEIR
B5: TCN-526 (5084_C17) (antibody, V domains shown)
VH: EVLMVESGGGLVQPGGSVRLSCVASGFSFSSHWMTWVRQAPGKGLEWVANIEDDGGDKYYVDSVKGRFIISRDNAKNSVYLQMNSLRAEDTAVYFCARGSGSSDRSDYDPHYYYYLDVWGKGATVTVSS
VL: DIQLTQSPSSLSASVGDRVTITCRASQSISRYLNWYQQKPGKAPKLLLFAASTLLDGVPSRFSGSGSGTDFTLTISSLQPEDFATYYCQRNHSPSWTFGQGTRVEIK
B6: TCN-523 (5248_A17) (antibody, V domains shown)
VH: QVQLVQSGAEVKKPGSSVKVSCKASGGSFSNYAFSWVRQAPGQGLEWMGGTIPLLGTTNYAQKFQGRVTISADQFTSTAYMELGSLRSEDTAVYYCTRRKMTTAFDSWGQGTLVTVSS
VL: QPVLTQPPSASASLGASVTLTCTLSSAYSNYKVDWYQQRPGKGPRFVMRVGTGGIVGSKGDGIPDRFSVLGSGLNRYLTIKNIQEEDESDYHCGADHGSGSNFVSPYVFGGGTKLTVL
B7: TCN-563 (5237_B21) (antibody, V domains shown)
VH: QVQLAQSGAEVKRPGSSVKVSCTASGGIFRKNAISWVRQAPGQGLEWMGGIIAVFNTANYAQKFQGRVKITADESGNTAYMELSSLRSDDTAVYYCASHPKYFYGSGSYPDFWGQGTLVTVSS
VL: QSALTQPRSVSGSPGQSVTISCTGSSSDVGASNSVSWYQQHPGKAPKLVIYDVTERPSGVPHRFSGSKSGNTASLTVSGLQPEDEADYFCCAYGGKYLVVFGGGTKVTVL
B8: TCN-527 (5086_C06) (antibody, V domains shown)
VH: QVQLQESGPGLVKPSETLSLNCAVSGGSISNYYWSWIRQPPGKGLEWIGYISYNGRPKYNPSLTSRVTISVDTSKDQFSLELRSVTAADTALYYCARETRFGELLSPYDAFEIWGQGTMVTVSS
VL: DIQMTQSPSSLSASVGDRVTMTCRASQNIRSYLNWYQQRPGTAPKLLIYAASTLHSGVPSRFSGGGSGTDFTLTINNLQPEDFASYYCQQSYDNPQTFGQGTKVEIK

These binders were tested against Hemagglutinin of influenza A/Japan/305/57 (H2N2), on inactivated whole virions (Influenza A virus A/Japan/305/1957 …, UniProt P03451 16-562) (assay: ELISA, B cell culture supernatant on inactivated whole virions).

In order of falling OD450:
1. B3  3.1 OD450
2. B1  2.82 OD450
3. B2  1.73 OD450
4. B6  1.62 OD450
5. B8  1.48 OD450
6. B7  1.23 OD450
7. B4  0.67 OD450
8. B5  0.07 OD450
